According to patent US20200199647A1, “ASSAY FOR SCREENING MODULATORS OF HOLOPHOSPHATASE ACTIVITY” (UNITED KINGDOM RESEARCH AND INNOVATION, priority 2017, published 2020):
Blank lines part the entries; values can stand above or below the substance they belong to.

Assays:
[1] = biological target: P-eIF2α (human eIF2α amino acids 1-185 solubility mutant, C-terminal His6-tag, phosphorylated on Ser51) (human) (UniProt P05198); assay: thermophoresis
Target sequence in this assay (P05198 other isoform, or with tags, fused parts or gaps mutant): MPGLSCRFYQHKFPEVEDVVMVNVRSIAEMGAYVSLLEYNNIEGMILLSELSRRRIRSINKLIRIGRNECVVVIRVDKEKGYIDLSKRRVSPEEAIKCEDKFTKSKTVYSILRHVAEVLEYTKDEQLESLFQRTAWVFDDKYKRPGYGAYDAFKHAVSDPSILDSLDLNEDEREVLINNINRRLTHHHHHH

[2] = biological target: PP1c (human PP1cα amino acids 7-330, N-terminal Thio6/His6 tag) (human) (UniProt P62136); assay: thermophoresis
[3] = biological target: P-eIF2α (human eIF2α amino acids 1-185 solubility mutant, C-terminal His6-tag, phosphorylated on Ser51) (human) (UniProt P05198); assay: thermophoresis (MST), labelled P-eIF2α, unlabelled PP1c^D95A titrated
[4] = biological target: P-eIF2α (human eIF2α amino acids 1-185 solubility mutant, C-terminal His6-tag, phosphorylated on Ser51) (human) (UniProt P05198); assay: thermophoresis (MST), labelled P-eIF2α with 10 µM R15B, unlabelled PP1c^D95A titrated
[5] = biological target: P-eIF2α (human eIF2α amino acids 1-185 solubility mutant, C-terminal His6-tag, phosphorylated on Ser51) (human) (UniProt P05198); assay: thermophoresis (MST), labelled P-eIF2α with 10 µM R15A, unlabelled PP1c^D95A titrated
[6] = biological target: PP1c (human PP1cα amino acids 7-330, N-terminal Thio6/His6 tag) (human) (UniProt P62136); assay: thermophoresis (MST), labelled PP1c, unlabelled R15A titrated

Sequence of PP1c (human PP1cα amino acids 7-330, N-terminal Thio6/His6 tag) (human) (P62136 other isoform, or with tags, fused parts or gaps): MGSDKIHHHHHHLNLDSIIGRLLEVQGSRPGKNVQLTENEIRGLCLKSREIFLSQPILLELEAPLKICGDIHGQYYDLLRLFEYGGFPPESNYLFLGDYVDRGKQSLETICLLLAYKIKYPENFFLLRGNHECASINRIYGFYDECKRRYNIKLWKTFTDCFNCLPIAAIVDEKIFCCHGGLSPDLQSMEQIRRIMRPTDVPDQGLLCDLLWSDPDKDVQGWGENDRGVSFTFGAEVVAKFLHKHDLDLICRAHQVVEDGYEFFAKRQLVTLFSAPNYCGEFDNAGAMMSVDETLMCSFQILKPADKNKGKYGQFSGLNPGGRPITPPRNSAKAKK

Kd [1]: 530 nM
Substance: R15B^N (human PPP1R15B amino acids 340-635, N-terminal MBP-tag, C-terminal His6-tag) (from UniProt Q5SWA1 340-635)

Kd [1]: 550 nM
Substance: R15B (human PPP1R15B amino acids 340-698, N-terminal MBP-tag, C-terminal His6-tag) (from UniProt Q5SWA1 340-698)

Kd [2]: 190 nM
Substance: R15A^C (human PPP1R15A amino acids 513-636, N-terminal MBP-tag, C-terminal His6-tag) (from UniProt O75807 513-636)

Kd [3]: 650 nM
Substance: PP1c^D95A (human PP1cα amino acids 7-330, D95A, N-terminal Thio6/His6 tag) (from UniProt P62136 7-330) (enzyme)

fold higher affinity than the isolated PP1c^D95A [4]: 3 times
Substance: R15B-PP1c^D95A holophosphatase complex (from UniProt P0AEX9 27-392; Q5SWA1 340-698; P62136 7-330)

fold higher affinity than the isolated PP1c^D95A [5]: 5.4 times
Substance: R15A-PP1c^D95A holophosphatase complex (from UniProt O75807 325-636; P62136 7-330)

Kd [1]: 440 nM
Substance: R15A^N (human PPP1R15A amino acids 325-512, N-terminal MBP-tag, C-terminal His6-tag) (from UniProt O75807 325-512)

Kd [6]: 60 nM | Kd [1]: 340 nM
Substance: R15A (human PPP1R15A amino acids 325-636, N-terminal MBP-tag, C-terminal His6-tag) (from UniProt O75807 325-636)
